Source: paper PMC7584632

Legend:
[1] = molecular target: SpyCas9 (Streptococcus pyogenes)
[2] = molecular target: SpyCas9 (Streptococcus pyogenes); remark: listed apart in the source

Substance | mutagenesis rate by NHEJ (T7E1 assay) with the AcrIIA4-2A-Cas9 vector; SpyCas9 vector alone 8.0% [1] | repression of the target mutation at AAVS1 (T7E1 assay, ssODN template) against SpyCas9 alone [2] | mutagenesis rate by NHEJ (T7E1 assay) with the AcrIIA4-Cdt1-2A-Cas9 vector; SpyCas9 vector alone 8.0% [1]
AcrIIA4 (natural protein) | 0.9% | – | –
AcrIIA4-hCdt1(30–120) (from UniProt Q9H211 30-120) | – | 79.1% | 3.7%
